Measurements as given in the nanobody polyreactivity screen of Harvey et al. (2022).

experiment: yeast display, Sf9 membrane polyspecificity reagent, FACS + sequencing; frameworks hold sequencing errors
In short: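 Polyreactivity labels are assigned by the sorting gate from which each nanobody was recovered. The gates were low and high (top ~1%), set on anti-HA fluorescence for expression and streptavidin fluorescence for reagent binding. Before sorting, galactose-induced (36–48 hours) yeast display cells were stained for 1 hour at 4 °C with 10% biotinylated, detergent-solubilized Sf9 membrane reagent.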

| Sequence | polyreactivity (PSR sort gate) |
| --- | --- |
| QVQLVESGGGLVQAGGSLRLSCAASGYIFGYNTMGWYRQAPGKERELVAAISKSGGRTYYADSVKGRFTISRDNAKNTVYLQMNSLKPEDTAVYYCAADGWSGKLRYTRYDYWGQGTQVTVSS | high polyreactivity |
| QVQLVESGGGLVQAGWSLRLSCAASGRTFTHAMGWYRQAPGKERELVADISSGGSPNYADSVKGRFTISRDNAKNSVYLQMNSLKREDTAVSYCAAVSGSLYGYSVDYWGQGTQVTGSS | low polyreactivity |
| QVQLVESGGGLVQEGGSLRLICAASGRTFRHNVMGWYRQAPGKQRELVAAISYSGGSTHYADSVKGRFTISRDNAKYTVYLQMNSLKPVDTAVYYCNRYSYDSHFLYPFRGHDYWGQGTQVTVSS | low polyreactivity |
| QVQLVESGGGLVQAGGSLRLSCAASGFTFQYYAMGWYRQAPGKERELVAAISWSGASTYYADSVKGRFTISRDNAKNTVYLQMNSLKPEDTAVYYCAADYWGHEYDYWGQGTQVTVSS | high polyreactivity |
| QVQLVESGGGLVQAGGSLRISCAASGFIFRSYAMGWDRKAPGKERELVAAITRSGGSTYYADSVKGRFTISRDNAKTTVYLQMNSLKPEDTAVYYCATRRYWYYILDYGGQGTQVTVSS | high polyreactivity |
| QVQLVESGGGLVQAGGSLRLSCAASGYIFDRYAMGWYRKAPGKEREMVAPISGRGGSTYYADSVKGRFSISRDNAKNTVFLQMNSLKPEDTAVYYCARDVYVRNGQRARYVSWGQGTQVTVSS | high polyreactivity |
| QVQLVESGGGLVQAGGSLRLSCAASGRTFKSYAMGWYRQAPGKERELVAAISRSSGSTYYADSVKGRFTISRDNAKNTVYLQMNSLKPEDTAVYYCATTKRVGYNYWGQGTQVTVSS | high polyreactivity |
| QVQLVESGGGLVQAGGSLRLSCAASGSIFYENTMGWYRQAPGKEREFVAAISRSGGSTYYADSEKGRYTISRDNAKNTVYLQRNSLKPEDTAVYYCAAKSRRYHHEYYYWGQGTQVTVSS | high polyreactivity |
| QVQLVESGGGLVQAGGSLRLSCAASGSTFAGYAMGWYRQEPGKERELVAAISGSGGTTYYADSVKGRFTISRDNAKNTVYLQMNSLKPEDNAVYYCAALRGRYYGGLGDYWGQGTQVTVSS | high polyreactivity |
| QVQLVESGGGLVQAGGSLRLSCAASGRIFYYYAMGWYRQAPGKERELVAAISQRGGRTYYADSVKGRFTISRDNAKNTVYLQMYSLNQEDPAVYYCNVAGVVYPWYYYWGQGTQVTVSS | high polyreactivity |
| QVQLVESGGGLVQAGGSLRLSCAASGRIFALYAMGGYRQAPGKERELVAAISIRAGSTYYADSAKGRFTISRDNAKNTVYLQMNSLKPEDTAVYYCATKGWVSTSYYYRPYGYWGQGTQVTVSS | high polyreactivity |
| QVQLVESGGGLVQAGGSLRLSCAASGSIFFINAMGWYRQAPGKERELVAAISSGGTTYYADSVKGRFTISRDNAKNTVYLQMNSLKPEDTAVYYCNAAGFPYAHTFFKGLVEYDSWGQGTQVTVSS | low polyreactivity |
| QVQLVESGGGLVQAGGSLRLSCAASGYIFLPNTMGWYRQAPGKERELVAVISKSGTSTYYADSVKGRFTISRDNAKNTVYLQMNSLKPEDTAVYYCNRVYRLTAYGYDYWGQGTQVTLSS | high polyreactivity |
| QFQLVESGGGLVQAGGSLRLSCAASGTFYPYAMGWYRQAPGKERELVAGITGSGGYTYFADSVKGRFTISRDNAKNTVYLQMNSLKPEDTAVYYCAKRSWIEYDYWGQGTQVTVSS | low polyreactivity |
| QVQLVESGGGLVQAGGSLRLSCAASGRIFRIYAMGWYIQAPGKERELVARITYSVGSTYYADSVKGRFTISRDNEKNSVFLQMNSLKPEDTSVYYCAADWLGYQYGYWGQGSQVTVSS | low polyreactivity |
| QVQLVESGGGLVQAGGSLRLSCAASGRIFLFYAMGWYRQAPGKERELVAAISIGSTDYADSVKGRFTISRDNAKNTVYLQMNSLKPEDTAVYYCAADFIITYDEYDYWGQGTQVTVSS | high polyreactivity |
| QVQLVESGGGLVQAGGSLRLSCAACGRIFDRNAMGWYRQAPGKERELVAAITRSGGRTYYADSVKGRFTISRDNAKNSVYLQMNSLKPEDTAVYYCNRGYPRSVVHYNSWGQGTQVTVSS | low polyreactivity |
| QVQLVESGGGLLQAGGSLRLSCAASGFTFSYYAKGWYRQAPGKERELVAVISDRGGITYYADSVKGRFTISRDNAKNTVYLQMNSVKPEDTAVYYCAADLDSWYGYYYIVEYWGQGTQVTVSS | low polyreactivity |
| QVQLVESGGGLVQAGGSLRLSCAASGFTFFPYAMGWYRQAPGKERELVAGITYIGGSTYYADSVKGRFTISRDNAKNTVYLQMNSLKPEDTAVYYCNAGRIGGFDWGQGTQVTVSS | low polyreactivity |
| QVQLVESGGGLVQAGGSLRLSCAASGSTLNVNAMGWYRQAPGKERELVAAITSGGSTYYADSVKGRFTISRDNAKNTVYLQMNSLKPEDTAVYYCNKRRSWRPTYPFGGSGFYYWGQGTQVTVSS | low polyreactivity |
| HVQLVESGGGLVQAGGSLRLSCAASGITFYDNVMGWYRQAAGKERELVAAITDSGGSTYYADSVKGRFTISRDNEKNTDYLQMNSLNPEDTAVYYCNAEVNAHWWWYIEDYWGQGTQVTVSS | low polyreactivity |
| QVQLEESGGCLVQAGGSLRLSCAATGITFYLYAMGWYRHAPGKERELVAAINSGGSTSYADSVKGRFTISRDNAKNTVYLQMNSLKTEDTADYYCNKLFLKFWGHQYGYWGQGTQVTVSS | high polyreactivity |

| Sequence | polyreactivity (PSR sort gate) |
| --- | --- |
| QVQLVESGGGLVQAGGSLRLSCAASGSTLRRYAMGWYRQAPGKERELVAAITRGSSTTYADSVKGRFTISRDNAKNTVYLQMNSLKPEDTAVYYCNTYFSRNFDYWGQGTQVTVSS | high polyreactivity |
| QVQLVESGGGLVQAGGSLRLSCAASGRIFSKKAMGWYRQAPGKERELVARIRWTGGITYYADSVKGRFTISRDNAKNTVYLQMNSLKPEDTAVYYCAADYLWGTWTTYFRPLLYDYWGQGTQVTVSS | low polyreactivity |
| QVQLVESGRGLVQAGGSLLLSCAASGSTFDVYAMGWYRQAPGKERELVAAIRSSGGSTFYADSVKGRFTISRDNAKNIVYLQMNSLKPEDTAVYYCAARSFVVSGYNKYYEYGDWGQGTQVTVSS | low polyreactivity |
| QVQLVESGGGLVQAGGSLRLSCAASGFTFYRNAMGWSRKAPGKERELVAAISTSGGSTHYADSVKGRFTISRDNAKNTVYLQMNSLKPEDTAVYYCAKRRSIRDEFGYWGQGTQVTVSS | high polyreactivity |
| QVQLVESGGGLVQAGGSLRLSCAASGSTIDVYTMGWYRQAPGKERELVAAISRGSSTYYADSVKGRFTISRDNAKNTVYLQMNSLKPEDTAVYYCNAVTSRKYRRYGYGYWGQGTQVTVSS | high polyreactivity |
| QVQLVESGGGLVQAGGSLRLSCAASGNTFRIYTMGWYRQAPGKERELVATITRRGGSTYYADSVKGRFTISRDNAKNTVYLQMNSLKPEDTAVYYCAARVRGTGVYGGYNYWGQGTQVTVSS | high polyreactivity |
| QVQLVESGGGLVQAGGSLRVSCAASGRIFILNTMGCYRQAPGKETELVAGISYSGSTYYADSVKGRFTISRDNAKNTVYLQMNSLKPEATAVYYCAAEYDAAWYNEGYYYWGQGTQVTVSS | low polyreactivity |
| QVQLVESGGGLVQAGGSLRLSCAASGRIFSSYDMGWYRQAPGKERELVAAISYSGGNTYYADSVKGRFTISRDTAKNTVYLQMNSLKPEDTAVYYCAARLPGYRYYYWGQGTQVTVSS | high polyreactivity |
| QVQLVESGGGLVQAGGSLRLSCAASGFIFTRYAMGWYRQAPGKEREFVARIDSSGGSTYYADSVKGRFTISRDNAKNTVYLQMNSLKPEDTAVYYCAAVGYRFGSYYWGQGTKVTVSS | high polyreactivity |
| QVQLVESGGGLVQAGGSLRLSCAASGGNFESNAMGWYRQAHGKERELVAAISWSGGTTYYADSVKGRFTISRDNAKNTDFLQMNSLKPEDTAVYYCAKVPFSYRSFGYWGQGTQVTVSS | low polyreactivity |
| QVQLVESGGGFVQAGGSLRLSCAASGRTYTLNAMRWYRQAPGKERELVAAITWGAGSTYYADSVKGRFTISRDNAKNTVYLQMNSLKPEDTAVYYCAARFHGAYYRYRSPSMYYWGQGTQVTVSS | high polyreactivity |
| QVQLVESGGGLVQAGGSLRLSCAASGRIFRYYPMGWYRQATGKERELVAAITASGGSTYYADSVKGRFTISRDNAKNTVYLQMNSLKPEDTAVYYCAARVAQVAYPDGYWGQGTQVTVSS | high polyreactivity |
| QVQLVESGGGLVQAGGSLRLSCAASGSIFTSYVMGWYRQAPGKERELVAAINSGGRTYYADSVKGRFTISRDNAKNTVYLQMNSLKPEDTAVYYCATDLLYYQYYSEYDYWGQGTQVTVSS | high polyreactivity |
| QVQLVKSGGGLVQAGGSLRLTCAASGFTFFVYAMGWYRQAPGKETELVAAITSSGGSTYYADSVKGRFTISRDNAKNTVYLQMNSLKPEDTAVYYCAPDRYSYLGYPYEYEYWGQGTQVTVSS | low polyreactivity |
| QVQLVDSGRGLVQAGGSLRLSCAASGFIFNPYVMGWYRQAPGKERELVAVITSGGSTNYADSVKGRFTISRDNAKNTVYLQMNSLKPEDTAVYYCNVDRRPYYVWRVTYDYWGQGTQVTVSS | low polyreactivity |
| QVQLVESGGGLVQAGGSLRLSCAASGRTFASYAMGWYRQAPGKERELVAVITRGGRTYYADSVKGRFTISRDNAKNTVYLQMNSLKPEDTAVYYCNAAYYSSSYLEDSWGQGTQVTVSS | high polyreactivity |
| QVQLVESGGGLVQAGGSLRLSCAASGYIFYDYVMGWYRQAPGKEREVVAAISSGGNTNYADSVKGRFTISRDNAKNTVYLQMNSLKPEDTAVYYCAADRWGARRKQYHENGYWGQGTQVTVSS | high polyreactivity |
| QVQLVESGGGLVQAGCSLRLSCAASGSTLSFNAMGWYRQAPGKERELVAGITYSGGSTYYADSVKGRFTISRDNAKNTVYLLMNSLKPEDTAFYYCNKACGVYYGHLDYWGQGTQVTVSS | low polyreactivity |
| QVQLVESGGGLVQAGGSLRFSCAASGSIFWYNAMGWYRQAPGKERELVARISSSGDSTYYADSVKGRFTISRDNAKNTVYLQMNSLKPEDTAVYYCNVDYWSISESSWGYYTSYDYWGQGTQVTVSS | high polyreactivity |
| QVQLVESGGGLVQAGGSLRLSCAASGSTFVGTALGWYRQAPGKVRELVATISNSGGRTYYADSVKGRFTISRDNAKNTVYLQMNSLKPEDTAVYYCAADHPVFGPGYSFDYWGQGTQVTVSS | low polyreactivity |
| QDQLVESGGGLVQAGGSLLLSCAASGSTFYDYVMGWYRQAPGKERELVADISSGGGTNYADSLKGRFTISRDNAKNTVYLQMNSLKPEDTAVYYCAAYRYFFWYEFVSWGQGTQVTVSS | high polyreactivity |
